Data on 6 substances can be found in paper PMC12775996.

pKd: −log10 of the molar value.

Test [1] has as its target human platelet factor 4 (human).
Test [2] has as its target adenovirus type 5 vector particles (wild-type capsid) (human adenovirus type 5). The test is described as follows: SPR; MP-SPR 220A, CMD 2D sensor, viruses amine-coupled, 22°C; PF4 at 7 μg/mL (900 nM) in pure PBS without passivating agents, 600 s injection, then flush.
For another test, the target named is human platelet factor 4. The test is described as follows: ELISA-qPCR. To be noted: PF4-coated wells; N = 6, two independent repeats; bar labelled Ad5-ΔfX; parent: est. 1.7e5; read off a plot. (In general: In an ELISA, binding on a coated surface is turned into a signal by an enzyme label.)

In test [1], “adenovirus type 5 vector particles (wild-type capsid), P06496 1-107” yielded a VP uptake in A549 cells (internalized Ad genomes by qPCR, 3 hpi, 20 vpc) after incubation with 10 μg/mL PF4 of 3 fold.

Take “adenovirus type 11 vector particles (complex)”: the VP uptake in A549 cells (internalized Ad genomes by qPCR, 3 hpi, 20 vpc) after incubation with 10 μg/mL PF4 in test [1] came to 1.6 fold.

As usually defined, the pKd is the Kd on a negative log10 scale, so that one unit is a factor of ten. Low values mean a high Kd, high ones a low Kd. Turning to “human platelet factor 4 (natural protein)”, in test [2], the pKd was 5.98.

“adenovirus type 13 vector particles (complex)” yielded a VP uptake in A549 cells (internalized Ad genomes by qPCR, 3 hpi, 20 vpc) after incubation with 10 μg/mL PF4 in test [1] of 1.6 fold.

Regarding “adenovirus type 5 vector particles (wild-type capsid) (from UniProt P06496) T425A”, in the test with human platelet factor 4, the response (number of bound VPs) is 290000.

Substance “adenovirus type 69 vector particles (complex)” displayed a VP uptake in A549 cells (internalized Ad genomes by qPCR, 3 hpi, 20 vpc) after incubation with 10 μg/mL PF4 in test [1] of 3 fold.
